Test results as given in patent publication US20140141415A1.

Legend:
[1] = target: sulfite reductase-GFP S11 wild type (Pyrobaculum aerophilum; Aequorea victoria); experiment: split GFP complementation in vitro, soluble lysate with excess purified fusion protein
[2] = target: GFP 1-9 OPT (Aequorea victoria); experiment: split GFP complementation, sandwich format

| Substance | fold improvement of in vitro complementation relative to the same amount of refolded superfolder GFP 1-10 [1] | fold increase of complementation rate compared to the starting strand construct [2] |
| --- | --- | --- |
| GFP 1-10 OPT | 80 fold | – |
| (GFP S10 SM5)-L1-sulfite reductase-L2-(GFP S11 SM5) | – | 20 fold |
